Test results taken from paper PMC2112520.

Target: 125I-PDGF plasma-binding protein of human plasma (about 280,000 mol wt) (human (endogenous in plasma))

- percent of added 125I-PDGF bound: 10 to 20%
Substance: 125I-labelled human platelet-derived growth factor II (from UniProt P04085 87-211; P01127 82-190) (ligand)
